Measured values reported in patent US20250215100A1 (HARBOUR BIOMED SHANGHAI, published 2025).

B1: PR001303 (APX005) (antibody, human IgG1, kappa)
heavy: not shown
light: DIQMTQSPSSLSASVGDRVTIKCQASQSISSRLAWYQQKPGKPPKLLIYRASTLASGVPSRFSGSGSGTDFTLTISSLQPEDVATYYCQCTGYGISWPIGGGTKVEIKRTVAAPSVFIFPPSDEQLKSGTASVVCLLNNFYPREAKVQWKVDNALQSGNSQESVTEQDSKDSTYSLSSTLTLSKADYEKHKVYACEVTHQGLSSPVTKSFNRGEC
notes: CD40 positive control antibody
B2: PR006492 (antibody, human IgG1, kappa, V domains shown)
VH: QVQLVQSGAEVKKPGASVKVSCKASGYTFAGYYMYWVRQAPGQGLEWMGWINPDSGAPTYAQKFQGRVTMTRDTSISTAYMELSRLRSDDTAVYYCAREKIYYGSGNYYPSFDYWGQGTLVTVSS
VL: DIQLTQSPSFLSASVGDRVTITCRASQGISSYLAWYQQKPGKAPKLLIYAASTLQSGVPSRFSGSGSGTEFTLTISSLQPEDFATYYCQQLESYPWTFGQGTKVEIKR
notes: PR003379 variant L:N92E; human IgG1 L234A, L235A, G237A
B3: PR006507 (antibody, human IgG1, kappa, V domains shown)
VH: QVQLVQSGAEVKKPGASVKVSCKASGYTFAGYYMYWVRQAPGQGLEWMGWINPDSGAPTYAQKFQGRVTMTRDTSISTAYMELSRLRSDDTAVYYCAREKIYYGSGNYYPSFDYWGQGTLVTVSS
VL: DIQLTQSPSFLSASVGDRVTITCRASQGISSYLAWYQQKPGKAPKLLIYAASTLQSGVPSRFSGSGSGTEFTLTISSLQPEDFATYYCQQLNEYPWTFGQGTKVEIKR
notes: PR003379 variant L:S93E; human IgG1 L234A, L235A, G237A
B4: PR006503 (antibody, human IgG1, kappa, V domains shown)
VH: QVQLVQSGAEVKKPGASVKVSCKASGYTFAGYYMYWVRQAPGQGLEWMGWINPDSGAPTYAQKFQGRVTMTRDTSISTAYMELSRLRSDDTAVYYCAREKIYYGSGNYYPSFDYWGQGTLVTVSS
VL: DIQLTQSPSFLSASVGDRVTITCRASQGISSYLAWYQQKPGKAPKLLIYAASTLQSGVPSRFSGSGSGTEFTLTISSLQPEDFATYYCQQLGSYPWTFGQGTKVEIKR
notes: PR003379 variant L:N92G; human IgG1 L234A, L235A, G237A
B5: PR006506 (antibody, human IgG1, kappa, V domains shown)
VH: QVQLVQSGAEVKKPGASVKVSCKASGYTFAGYYMYWVRQAPGQGLEWMGWINPDSGAPTYAQKFQGRVTMTRDTSISTAYMELSRLRSDDTAVYYCAREKIYYGSGNYYPSFDYWGQGTLVTVSS
VL: DIQLTQSPSFLSASVGDRVTITCRASQGISSYLAWYQQKPGKAPKLLIYAASTLQSGVPSRFSGSGSGTEFTLTISSLQPEDFATYYCQQLNFYPWTFGQGTKVEIKR
notes: PR003379 variant L:S93F; human IgG1 L234A, L235A, G237A
B6: PR006516 (antibody, human IgG1, kappa, V domains shown)
VH: QVQLVQSGAEVKKPGASVKVSCKASGYTFAGYYMYWVRQAPGQGLEWMGWINPDSGAPTYAQKFQGRVTMTRDTSISTAYMELSRLRSDDTAVYYCAREKIYYGSGNYYPSFDYWGQGTLVTVSS
VL: DIQLTQSPSFLSASVGDRVTITCRASQGISSYLAWYQQKPGKAPKLLIYAASTLQSGVPSRFSGSGSGTEFTLTISSLQPEDFATYYCQQLNHYPWTFGQGTKVEIKR
notes: PR003379 variant L:S93H; human IgG1 L234A, L235A, G237A
B7: PR006513 (antibody, human IgG1, kappa, V domains shown)
VH: QVQLVQSGAEVKKPGASVKVSCKASGYTFAGYYMYWVRQAPGQGLEWMGWINPDSGAPTYAQKFQGRVTMTRDTSISTAYMELSRLRSDDTAVYYCAREKIYYGSGNYYPSFDYWGQGTLVTVSS
VL: DIQLTQSPSFLSASVGDRVTITCRASQGISSYLAWYQQKPGKAPKLLIYAASTLQSGVPSRFSGSGSGTEFTLTISSLQPEDFATYYCQQLNQYPWTFGQGTKVEIKR
notes: PR003379 variant L:S93Q; human IgG1 L234A, L235A, G237A

Legend:
human CD40 on cells [1] = target: T1, human CD40 on cells (human, UniProt P25942 21-277); assay: FACS, Raji cells
T1 construct: whole, on cells; The cell line used is named in each row's assay; also called hCD40; TNFRSF5
T1 sequence (P25942 21-277): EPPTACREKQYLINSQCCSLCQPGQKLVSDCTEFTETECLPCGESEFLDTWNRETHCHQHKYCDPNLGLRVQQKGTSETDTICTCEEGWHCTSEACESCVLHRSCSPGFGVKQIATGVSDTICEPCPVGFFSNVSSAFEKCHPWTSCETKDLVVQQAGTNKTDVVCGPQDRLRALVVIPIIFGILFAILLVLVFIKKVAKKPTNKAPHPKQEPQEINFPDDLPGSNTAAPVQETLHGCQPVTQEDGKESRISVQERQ
Excerpt: (§1) Flow cytometry (FACS) was used to detect the binding ability of the CD40 antibody to cells, such as, CHO-K1/hCD40 highly expressing human CD40 (constructed by Beijing Kyinno Biotechnology), CHO-K1/cyCD40 highly expressing cynomolgus monkey CD40 (constructed by Beijing Kyinno Biotechnology) and lymphoma cell highly expressing human CD40, Raji (ATCC, #CCL-86). Specifically, the cells were digested and resuspended with complete medium (F-12K for CHO-K1 cells; and RPMI-1640 for Raji cells); and the cells were adjusted to a cell density of 1×10⁶ cells/mL. The cells were seeded in a 96-well V-bottom plate (Corning, #3894) at 100 μL/well, and the antigen binding protein to be tested at 2x final concentration was then added at 100 μL/well and mixed evenly, with the highest final concentration of the antigen binding protein of 300 nM, a total of 8 concentrations, and 5-fold concentration gradient dilution. hIgG (Crownbio, #C0002) was used as a negative control, and the positive control molecule was the molecule in Table 1-5. The cells were incubated at 4° C. for 1 hours in the dark. After the incubation, the cells were rinsed twice by adding pre-chilled PBS at 100 μL/well, and centrifuged at 500 g at 4° C. for 5 minutes, and the supernatant was discarded. Then, a fluorescent secondary antibody (goat anti-human IgG (H+L) secondary antibody, Alexa Fluor® 488 conjugate, Invitrogen, #A11013, 1:1000 dilution) was added at 100 µL/well, and the cells were incubated at 4° C. for 30 minutes in the dark. The cells were washed twice with pre-chilled PBS at 200 μL/well, and centrifuged at 500 g at 4° C. for 5 minutes, and the supernatant was discarded. Finally, the cells were resuspended in pre-chilled PBS at 200 μL/well. The fluorescence signal values were read using a BD FACS CANTOII flow cytometer or ACEA NovoCyte flow cytometer, and the data were processed and analyzed using FlowJo v10 software (FlowJo, LLC).
(§2) Data processing and graphical analysis were performed using GraphPad Prism 8 software. The binding curve of the antibody to the target cell and parameters, such as EC50 value were obtained by four-parameter nonlinear fitting.

human CD40 on cells [2] = target: T1, human CD40 on cells; assay: FACS, CHO-K1/hCD40 cells
Excerpt: as §1, §2

[3] = target: T2, cynomolgus monkey CD40 on cells (cynomolgus monkey, UniProt G7PG38 21-278); assay: FACS, CHO-K1/cyCD40 cells
T2 construct: also called cyCD40; CHO-K1/cyCD40
T2 sequence (G7PG38 entry or part of it limits assumed): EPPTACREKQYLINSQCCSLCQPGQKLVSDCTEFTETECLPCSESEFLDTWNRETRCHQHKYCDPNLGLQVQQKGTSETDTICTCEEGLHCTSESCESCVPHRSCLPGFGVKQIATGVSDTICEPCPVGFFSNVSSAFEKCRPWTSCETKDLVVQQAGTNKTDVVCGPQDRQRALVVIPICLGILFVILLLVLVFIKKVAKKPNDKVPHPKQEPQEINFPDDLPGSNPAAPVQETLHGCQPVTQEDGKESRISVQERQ
Excerpt: as §1, §2

| Binder | EC50 (human CD40 on cells [1]) [nM] | Maximum MFI (human CD40 on cells [1]) [MFI] | EC50 (human CD40 on cells [2]) [nM] | Maximum MFI (human CD40 on cells [2]) [MFI] | EC50 [3] [nM] | Maximum MFI [3] [MFI] |
| --- | --- | --- | --- | --- | --- | --- |
| B1 | 0.0347 | 2790 | 2.83 | 26000 | 4.72 | 93600 |
| B2 | 0.418 | 9070 | 8.87 | 92300 | 6.26 | 52200 |
| B3 | 0.384 | 12300 | 5.58 | 81800 | 5.01 | 49300 |
| B4 | 0.333 | 12200 | 6.07 | 84500 | 3.99 | 49600 |
| B5 | 0.388 | 12100 | 5.85 | 82800 | 4.5 | 47300 |
| B6 | 0.351 | 8900 | 5.08 | 86100 | 5.29 | 51400 |
| B7 | 0.373 | 12000 | 7.51 | 89200 | 3.56 | 40200 |
